Laboratory results as given in PMC9239094 (mBio, 2022).

B1: Capnocytophaga canimorsus GldM″ (GldM truncated after the D2 periplasmic domain, twin-Strep-tagged) (domain or fragment)
chain: MAGGNSPRQKMINLMYLVFISMLALNMGKEVLSAFGLMNEKLEASNEKANNANINAIQALEQNNAENPDQFAEAFQKSKKVKELSDSFYNYIEGIKGEVMNQVGEDKKDYQVMDKSDYLDQKFFVGDNYKPEGEEFVRQINDYKTQLVELLGGKEGTYGELVGKIDGNFNTNDVVDREGVTRKWLNYNFEGFPYIASVAKLSMMQSDIRATEQEVYAEMLKGQLKSQISMTNYTTLLEQSKGAYYQGESFDGAIVLGRKDASTRPNEVELMLDGRKLSASEFQIEDGKVKLKVGAGNAGEHKITGNLYFDQDGKRIAVPVSQVFSTIPKPENLYFQGQFGSWSHPQFEKGGGSGGGSGGGSWSHPQFEK
B2: Schleiferia thermophila GldM′ (GldM truncated after the first periplasmic D1 domain, twin-Strep-tagged) (domain or fragment)
chain: MAQGKLSPRQRMINMMYLVLTALLALNISKDILEALTKLNEDLSSTVMTVEKKLAFIYQAFDLAASENPEKAGVWRDKAYEVKKQADELHNYLEGIKNDLIEITGGIDEKTNRPKGLDNREKVANYLLVNEGGKAREIRARLEQFRDNMKQYVDEEAALINMLEALFNTEKKKVGDVMIEWENATFEHFPLAAVIPFITGIQANVRNAEADIISHLQRNIGKTDLKFTDENLYFQGQFGSWSHPQFEKGGGSGGGSGGGSWSHPQFEK
B3: Porphyromonas gingivalis PorM′ (PorM truncated after the first periplasmic D1 domain, twin-Strep-tagged) (domain or fragment)
chain: MAVGSNGNANRQKMINLMYLVFIAMMALNVSSEVLDGFDKVDKSLTSSIDGSDKRNNLVLSELNTAYRTNPEKVKVWYERSLVLQKEADSLCTFIDDLKLAIARESDGKDAKVNDIRRKDNLDASSVVMLNPINGKGSTLRKEVDKFRELVATLMTDKAKLKLIEQALNTESGTKGKSWESSLFENMPTVAAITLLTKLQSDVRYAQGEVLADLVKSVDVGDYRVNS
B4: Porphyromonas gingivalis PorL (natural protein)
chain: MGHYRRYKNILEMYLASHKGRRLLNIVYSWGAAVVILGALFKLLHLPMGNEMLFVGMITEFLVFFISGFEKPAMEYHWEEVFPELDSKNPMDRREMEQRREYLREKAKEAAAYAERPSSVRLASASLGTQPQEQPKPATPFQSQLTGILPEEQIQRLSEGIDKLAEAGEQLARIGRTAAAMTESYEQMQADQEGLRLNSQSYIQQMESLSRNISGLNTIYEIQLKGISSQIDTIDRINRGLAHIRDMYDNSVIDSSSFRNENERMARQLTQLNEVYARLLQALTTNVGLPGMPGNFGASNPSSSGSSPL
B5: Sphingobacterium wenxiniae GldM′ (GldM truncated after the first periplasmic D1 domain, twin-Strep-tagged) (domain or fragment)
chain: MAGKKETPRQRMIGILYLVLLGLVALNVSDSILDAFKNLGNSLNTSTQNTQAGIDNMFLAFRETKLKENPERAQPILQKAEQAQALVQQLTSKVGELTTLLEGEGGGLDEETGDVKYRSSTDISARLMINEGRAKELREVITKTKAELLTLTNNEINLTLEAEDPAPRGGIKKTWEQANFGDGIPLTAAITALEKINADAKNAESAVVKHIFGKMDQAVVNLDQENLYFQGQFGSWSHPQFEKGGGSGGGSGGGSWSHPQFEK

Columns and labels:
Assay in all cases: cryo-EM structure; single-particle cryo-EM of the complex purified in LMNG (Strep-Tactin XT, then SEC); samples at A280 of 1 on Quantifoil Au R1.2/1.3 grids, blotted at 4°C; SthGldLM′ also with fluorinated octyl maltoside in buffer W (100 mM Tris-HCl pH 8.0, 150 mM NaCl, 1 mM EDTA) plus 0.01% LMNG
[1] = molecular target: Sphingobacterium wenxiniae GldL (Sphingobacterium wenxiniae)
[2] = molecular target: Capnocytophaga canimorsus GldL (Capnocytophaga canimorsus)
[3] = molecular target: Schleiferia thermophila GldL (Schleiferia thermophila)
[4] = molecular target: the molecule itself

Molecule	stoichiometry N [4]	other results
Sphingobacterium wenxiniae GldL (natural protein)		stoichiometry N [1]: 5
Capnocytophaga canimorsus GldL (natural protein)		stoichiometry N [2]: 5
Schleiferia thermophila GldL (natural protein)		stoichiometry N [3]: 5
B1	2	
B2	2	
B3	2	
B4	5	
B5	2	
